Laboratory results as given in patent US20200384109A1 (Novartis, published 2020).

How the values were obtained:
JC virus (JCV) = JC virus (JCV) (JC virus, UniProt P03089 1-354); assay: cell-based or functional assay
[1] = target: T1, BKV serotype I (ST1) virus-like particles (VLPs) (BK virus serotype I, UniProt P03088 1-362); assay: solution equilibration titration (SET), antibody 1 pM, BKV VLPs in solution, MSD read-out
T1 construct: VLP made by expressing VP1 in Sf9 insect cells and composed of 72 VP1 pentamers; also called BKV ST1 VLP; BKV ST1
T1 chain: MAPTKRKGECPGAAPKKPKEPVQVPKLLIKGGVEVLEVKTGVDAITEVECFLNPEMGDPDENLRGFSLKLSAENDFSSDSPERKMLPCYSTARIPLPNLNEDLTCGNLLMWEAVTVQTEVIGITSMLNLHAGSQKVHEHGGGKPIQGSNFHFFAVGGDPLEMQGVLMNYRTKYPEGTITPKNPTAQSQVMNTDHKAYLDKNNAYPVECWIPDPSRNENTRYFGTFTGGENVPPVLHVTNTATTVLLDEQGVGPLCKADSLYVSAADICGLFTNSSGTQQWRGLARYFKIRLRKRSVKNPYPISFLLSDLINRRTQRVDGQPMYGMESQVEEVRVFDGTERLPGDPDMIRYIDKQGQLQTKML

[2] = target: T2, BKV serotype IV (ST4) virus-like particles (VLPs) (BK virus serotype IV, UniProt P14996 1-362); assay: solution equilibration titration (SET) with BKV VLPs
T2 construct: VLP made by expressing VP1 in Sf9 insect cells and composed of 72 VP1 pentamers; also called BKV ST4 VLP; BKV ST4

[3] = target: T2, BKV serotype IV (ST4) virus-like …; assay: ELISA on plates coated with BKV ST1 or ST4 VLPs (100 ng/well)
Method: The binding of antibodies to VLPs were analyzed by ELISA. Briefly, Nunc MaxiSorp 384-well plates (Thermo Scientific) were coated with 100 ng/well BKV VLPs to BK serotype I (ST1) or serotype IV (ST4) overnight. Antibodies were serially diluted in PBS with 0.5% BSA and allowed to bind antigen-coated plates for 2 hours. […] Plates were washed with PBS and tetramethylbenzidine (TMB) microwell peroxidase substrate (SeramunBlau Fast, Seramun, Germany) was used to develop the reactions.

Binder | EC50 of virus neutralization (JC virus (JCV)) [nM] | Kd [1] [nM] | binding result [2] | binding result [3]
NOV530 (antibody, V domains shown, also called antibody NOV530; cross-neutralizing IgG NOV530) VH: QVQLQESGPGLVKPSQTLSLTCTVSGGSISGGGYYWSWIRQHPGKGLEFIGYIYYNRGTYYNPALKSRLTISVDTSKNDFSLKLSSVSAADTAVYYCARCVLGGYGSDAFDRWGQGTTVTVAS VL: EIVLTQSPVTLSLSPGERAILSCRASQSVSSHLAWYQQKPGQAPRLLIYDASSRANGIPARFSGSGSGTDFTLTISSLAPEDFAVYYCQQRSSWPPSLTFGGGTKVEIRR | < 1 | < 0.05 | – | –
NOV581 (antibody, V domains shown, also called antibody NOV581; clone NOV581) VH: QVQLVESGGGLVQPGGSLRLSCVASGFTFSGYNMHWVRQAPGKGLEWVSYISNSGRTIYYADSVKGRFTLSRDNAKNSLYLQMNSLRAEDTAVYFCARDRDPQWLGNDALQIWGQGTMVTVSS VL: EIVLTQSPGTLSLSPGERATLSCRASQSVSSGYLAWYQQKPGQAPRLLIYGASSRATGIPDRFSGSGSGTDFTLTISRLEPEDFAVYYCQQYGTSRKTFGQGTKVEIKR | – | < 0.05 | no binding | –
NOV638 (antibody, V domains shown, also called antibody NOV638) VH: QVQLVQSGAEVKKPGASVKVSCKASGYTFTSYDIIWVRQATGQGLEWMGRMNPTGGNTDYVPKFQGRVTMTRDISLSTAYMELRSLTSEDTAVFYCARGVKSLGVSEIDYWGQGTLVTVSS VL: QSALTQPPSVSAAPGQKVTISCSGSTSNIANNYVLWYQQLPGTAPKLLIYDNNKRPSGIPDRFSGSKSGTSATLGITGLQTADEADYYCGTWDNSLSVGVFGGGTKLTVLG | – | – | – | no binding
